Source: doi:10.1101/194993
Positions count from the first letter of the chain named.

Columns and labels:
[1] = target: native tubulin purified from porcine brain, polymerised to microtubules (MTs) (porcine); experiment: total internal reflection fluorescence microscopy
[2] = target: native tubulin purified from porcine brain, polymerised to microtubules (MTs) (porcine); experiment: co-sedimentation
[3] = target: native tubulin purified from porcine brain, polymerised to microtubules (MTs) (porcine); experiment: co-sedimentation; remark: listed apart in the source
[4] = target: native tubulin purified from porcine brain, polymerised to microtubules (MTs) (porcine); experiment: co-sedimentation; remark: listed apart in the source

B1: Cdt1^92-546 (human Cdt1 devoid of the N-terminal 92 aa, N-terminal GFP fusion) (domain or fragment)
chain: PSPGQKIKKSTPAAGQPPHLTSAQDQDTISELASCLQRARELGARVRALKASAQDAGESCTPEAEGRPEEPCGEKAPAYQRFHALAQPGLPGLVLPYKYQVLAEMFRSMDTIVGMLHNRSETPTFAKVQRGVQDMMRRRFEECNVGQIKTVYPASYRFRQERSVPTFKDGTRRSDYQLTIEPLLEQEADGAAPQLTASRLLQRRQIFSQKLVEHVKEHHKAFLASLSPAMVVPEDQLTRWHPRFNVDEVPDIEPAALPQPPATEKLTTAQEVLARARNLISPRMEKALSQLALRSAAPSSPGSPRPALPATPPATPPAASPSALKGVSQDLLERIRAKEAQKQLAQMTRCPEQEQRLQRLERLPELARVLRSVFVSERKPALSMEVACARMVGSCCTIMSPGEMEKHLLLLSELLPDWLSLHRIRTDTYVKLDKAADLAHITARLAHQTRAEEGL
Kd [1]: 460 nM
dwell time [1]: 2.37 s
kon [1]: 1070 M⁻¹ s⁻¹
Kd [2]: 1850 nM
Kd [3]: 2200 nM
binding left in the presence of 250 mM NaCl [3]: 50%
Kd [4]: 2030 nM

B2: Cdt1^92-546 8D (Aurora B phosphomimetic mutant) (domain or fragment)
chain: B1 chain with S10D, T11D, S52D, S174D, T179D, T196D, T238D, T267D
Kd [4]: 5500 nM

B3: full-length (FL) Cdt1^1-546, untagged (natural protein)
chain: MEQRRVTDFFARRRPGPPRIAPPKLACRTPSPARPALRAPASATSGSRKRARPPAAPGRDQARPPARRRLRLSVDEVSSPSTPEAPDIPACPSPGQKIKKSTPAAGQPPHLTSAQDQDTISELASCLQRARELGARVRALKASAQDAGESCTPEAEGRPEEPCGEKAPAYQRFHALAQPGLPGLVLPYKYQVLAEMFRSMDTIVGMLHNRSETPTFAKVQRGVQDMMRRRFEECNVGQIKTVYPASYRFRQERSVPTFKDGTRRSDYQLTIEPLLEQEADGAAPQLTASRLLQRRQIFSQKLVEHVKEHHKAFLASLSPAMVVPEDQLTRWHPRFNVDEVPDIEPAALPQPPATEKLTTAQEVLARARNLISPRMEKALSQLALRSAAPSSPGSPRPALPATPPATPPAASPSALKGVSQDLLERIRAKEAQKQLAQMTRCPEQEQRLQRLERLPELARVLRSVFVSERKPALSMEVACARMVGSCCTIMSPGEMEKHLLLLSELLPDWLSLHRIRTDTYVKLDKAADLAHITARLAHQTRAEEGL
Kd [3]: 2290 nM

B4: Cdt1^410-546 (N-terminal GFP fusion) (domain or fragment)
chain: ASPSALKGVSQDLLERIRAKEAQKQLAQMTRCPEQEQRLQRLERLPELARVLRSVFVSERKPALSMEVACARMVGSCCTIMSPGEMEKHLLLLSELLPDWLSLHRIRTDTYVKLDKAADLAHITARLAHQTRAEEGL
reduction of MT binding against Cdt1^92-546 [3]: 50%
